# In the DeepSol protein solubility set:
# Experiment: soluble on expression in E. coli; label from the status in PepcDB or PDB records
row,Sequence,soluble on expression in E. coli
1,MGSDKIHHHHHHMKTLIKNVHILTMDEQFSEIKAGYLVIEEDTIVELAPMTTLDEKRMAANQVIDGQNGILMPGMINTHTHVGMIPFRSLGDDVPDRLRRFLFPLEQFMTKELVGCSSDYAIAEMLLSGITSFCDMYYFEDEIAKSCEKMSVRALLGETIIDMPTCDSPEPSGGLFYAETFIRKWQGHPLITPMLAPHAPNTNSPEVLAKIIELSRQYQVPVTMHVAEMTYEMAEFEKAYQKTPIAFLEELGYLSEPFILAHCILATDEDLASLAATNGKARVAHCIGANTKSAKGVAPIKQMLDQGIIVGLGTDGPSSGNTLDLFTQMRMVANFHKTAHQDRSLFPAKEIVYLATMGGAKTLGLAEQVGSLEVDKKADITLIETQSVNMFPIFDAYSALVYSANASNVEAVWVNGQQLVANKELQQANLKEIKEKLYQAMNTFVKEAKKRAAL,not soluble
2,MSQGLPLREDVPVSETWDLVDLFKDDQQYYESIDALVQQANQFHHTYATTLNSIEQINTALAELENILIALDRLSNYAELRLSVDTSNIEAQVLSAKLSTTYGKIVSQLSFVESEILELPEEILQQLEESCPYQHYIKQLIKQKPFQLSASVEQVLATLSPTLNSPYDLYGTTKMLDITFDSFEHDGTTYPVDYATFENDYEDNKDPEFRRKSFKSFSDGIRKYQHTTAATYNMQVQQEKIEADLRGFESVIDYLLHSQEVTRDMFDRQIDMIMRDLAPVMQKYAKLLQRIHGLDNMRFEDLKISVDPDYEPEISIEDSKNYIFGALSVLGDDYTNMLREAYDQRWIDFAQNKGKDTGAFCASPYFTHSYVFISWTGKMAEAFVLAHELGHAGHFTLAQKHQPYLESEASMYFVEAPSTMNEMLMANYLFNTSDNPRFKRWIIGSILSRTYYHNMVTHLLEAAYQREVYHKVDQGESLNAPTLNEIMLNVYKQFFGDAVDMTEGAELTWMRQPHYYMGLYSYTYSAGLTIGTVVSQKIKNEGQPAVDAWLETLKKGGSVSPVELANIAGVDITTEQPLKSTIQYISDLVDEVEKLTDEIEQANN,soluble
3,MSDVEKKSETQEAAPKKKPYNLREKKEKKAAYRSLIRAELADELYDKILNIVVVQKKYKDPNYSAKDLAKELKTNTRYLSAVVNSRFGMNYSCLLNEYRIKDALHLLVDKRYMDKNVEEISAMVGFANRQSFYAAFYKNVGETPNGYRKRNQEKK,not soluble
4,RLSEIFNSPEFAESKSKLTLALGQDITGQPVVTDLGKAPHLLVAGTTGSGKSVGVNAMILSMLFKAAPEDVRMIMIDPKMLELSIYEGIPHLLAPVVTDMKLAANALNWCVNEMEKRYRLMSFMGVRNLAGFNQKIAEAAARGEKIGNPFSLTPDDPEPLEKLPFIVVVVDEFADLMMTAGKKIEELIARLAQKARAAGIHLILATQRPSV,not soluble
5,MAHHHHHHMPGPGLLADGWFREENGQWPGQAMSFKVEEVLHDTPTKFQHLSIFETDPKGPWGTVMTLDGCIQLTDFDEFVYHEMLSHTPLCAHPDPVDVLIIGGGDGGVMREVLRHGTVKRCVLVDIDGDVIEASKKYFPQISSGFSDPRADVRVGDGVAFVREAASESFDVVIIDTTDPDGPAAELFGEKFYRDVLRILKPRGICCNQGESVWLNRNLIEGMADFIKNKVGFASVKYAMIYTPTYPCGSIGSLICSKVAGVDVTQPVRPVESMPFAGELKYYDSDVHKAAFVLPRFARHLNQNYS,soluble
6,MADAEVIILPKKHKKKKERKSLPEEDVAEIQHAEEFLIKPESKVAKLDTSQWPLLLKNFDKLNVRTTHYTPLACGSNPLKREIGDYIRTGFINLDKPSNPSSHEVVAWIRRILRVEKTGHSGTLDPKVTGCLIVCIERATRLVKSQQSAGKEYVGIVRLHNAIEGGTQLSRALETLTGALFQRPPLIAAVKRQLRVRTIYESKMIEYDPERRLGIFWVSCEAGTYIRTLCVHLGLLLGVGGQMQELRRVRSGVMSEKDHMVTMHDVLDAQWLYDNHKDESYLRRVVYPLEKLLTSHKRLVMKDSAVNAICYGAKIMLPGVLRYEDGIEVNQEIVVITTKGEAICMAIALMTTAVISTCDHGIVAKIKRVIMERDTYPRKWGLGPKASQKKLMIKQGLLDKHGKPTDSTPATWKQEYVDYSESAKKEVVAEVVKAPQVVAEAAKTAKRKRESESESDETPPAAPQLIKKEKKKSKKDKKAKAGLESGAEPGDGDSDTTKKKKKKKKAKEVELVSE,soluble
7,EFPEITEEMEKEIKNVFRNGNQDEVLSEAFRLTITRKDIQTLNHLNWLNDEIINFYMNMLMERSKEKGLPSVHAFNTFFFTKLKTAGYQAVKRWTKKVDVFSVDILLVPIHLGVHWCLAVVDFRKKNITYYDSMGGINNEACRILLQYLKQESIDKKRKEFDTNGWQLFSKKSQEIPQQMNGSDCGMFACKYADCITKDRPINFTQQHMPYFRKRMVWEILHRKLL,soluble
8,HQCQGCGSTQLISVGVGTEQLETQLTNLFPEYKTVRIDRDSTRRKGSLEDYLEAIKNNEYQILIGTQMLAKGHHFPNVTLVGLIDVDSSLFSSDFRAPERLAQLFIQVAGRAGRASKPGEVILQTHHPE,not soluble
9,GAMGSMNGIDDLLNINDRIKQVQNERNELASKLQNLKQSLASNDTEVALSEVIAQDIIEVGASVEGLEQLRAKYGDLQILNKLEKVAVQQTQMQAGVDKLDSFERQLDELAEQPPDQFTLDDVKALHSKLTSVFATVPQINNIDSQYAAYNKLKSKVTGKYNDVIIQRLATNWSNTFDQKLLEAQWDTQKFASTSVGLVKCLRENSTKLYQLSLLYLPLEEETQNGDSERPLSRSNNNQEPVLWNFKSLANNFNVRFTYHFHATSSSSKIETYFQFLNDYLAENLYKCINIFHDDCNGLTKPVIHEQFINYVLQPIRDKVRSTLFQNDLKTLIVLISQILATDKNLLNSFHYHGLGLVSLISDEVWEKWINYEVEMANRQFINITKNPEDFPKSSQNFVKLINKIYDYLEPFYDLDFDLLVRYKLMTCSLIFMNLTSSYLDYILTVDSLNETRTKEQELYQTMAKLQHVNFVYRKIKSLSSNFIFIQLTDIVNSTESKKYNSLFQNVENDYEKAMSTDMQNSIVHRIQKLLKETLRNYFKISTWSTLEMSVDENIGPSSVPSAELVNSINVLRRLINKLDSMDIPLAISLKVKNELLNVIVNYFTESILKLNKFNQNGLNQFLHDFKSLSSILSLPSHATNYKCMSLHELVKILKLKYDPNNQQFLNPEYIKTGNFTSLKEAYSIKYLKDTKIQDALYRIIYGNIL,soluble
10,MASVVGTPKSAEQIQQEWDTNPRWKDVTRTYSAEDVVALQGSVVEEHTLARRGAEVLWEQLHDLEWVNALGALTGNMAVQQVRAGLKAIYLSGWQVAGDANLSGHTYPDQSLYPANSVPQVVRRINNALQRADQIAKIEGDTSVENWLAPIVADGEAGFGGALNVYELQKALIAAGVAGSHWEDQLASEKKSGHLGGKVLIPTQQHIRTLTSARLAADVADVPTVVIARTDAEAATLITSDVDERDQPFITGERTREGFYRTKNGIEPCIARAKAYAPFADLIWMETGTPDLEAARQFSEAVKAEYPDQMLAYNCSPSFNWKKHLDDATIAKFQKELAAMGFKFQFITLAGFHALNYSMFDLAYGYAQNQMSAYVELQEREFAAEERGYTATKHQREVGAGYFDRIATTVDPNSSTTALTGSTEEGQFH,soluble
11,MSEQKTIRFIITRQDTADSTPYDEEFEIPYRPNLNVISALMEIRRNPVNVKGEKTTPVTWDMNCLEEVCGACSMVINGKPRQSCTALIDQLEQPIRLKPMKTFPVVRDLQVDRSRMFDSLKKVKAWIPIDGTYDLGPGPRMPEKRRQWAYELSKCMTCGVCLEACPNVNSKSKFMGPAPMSQVRLFNAHPTGAMNKSERLEALMDEGGLADCGNSQNCVQSCPKGIPLTTSIAALNRDTNLQAFRNFFGSDRV,not soluble
12,MSSDDYESIDTPRVASLADMNRLPTQSRHSSYSTDDDEDVTPTPSASNSAPKNTILDPLQAQFLHPNSENSDIDEPRVQLREKKKATRAQDATVSHFLEDQVPNQKFKRRSAERHSMLAGAADFASRRSPFHLSGANGSGRWTDLFSSSRFKRKQRQELNNVPSSSYSNNDYGTYAGTQSIGGFSIASNSTGESFALSGTEDEIREEFRKIMLDKGLPEADKIISNTPLDQMKMMIENSRKQDNQAKGRSPEWVVRVLGEILKTKNIPECKQDIVTVRVQLVGQGVSFLNKFAVEVHDESGRTGADLICCLYSLVLKRLRSSEVGSKYELDLIDFLQEIVRCVRTLINTHVGLVLVLRRNSPVYSLLIQTLCVLNRREQNDHEAAEIRAIRVDVVRTCYTLIFVQHDTLSTPIEMTGQQKMFMELSLIAKAESKRLNEPVSRFRPLISCIDFLESRDPKQGMYVLLMINMMINGVDRNISDDQMWTEETMWQARMRLRSEAAKDKLHKYIEKFTTSETVNSQIRDVAQNMLTEHNADLETLMGKLENVKGEYDTLDGCFELLAANSEATGTETVLLSILQLMTLTNEDMSTKRSYMKLIETAISDILLHRTPIDPQADYKFVFEVPVAEIIDKMQDEEMAKKVRQATSAKQEAVAMQGEYWKTLCDFQKEAEELRKHINDPKIPLPPPTKMNLSAPSTSAGGSSALPPITGGPPPPPGLPPITGGPPPPPPPGGLPPITGGPPPPPPPGGLPPISGGPPPPPPPPGGCPPPPPPPPPGGFKGGPPPPPPPGMFAPMAPVIPDYLPPKKVPKVDGPMRKFPWGAHTINPRDIPRESFWVGTNEEQLTSDRMFDRLRTKFATKPAANSGTLGGVLNSKKKVKTAQVIHDDKLLQKLGILQGSIKMSHSELKLAILEVNEKVLTVGFLEQLRSAMPVEKELIDKLRAVNKAQFEEMPEGEQFVTRLLQIQGLPLRLDLVLFKMRFSEVLNELKPAMSSVMEACEEVRASEGFRTFLKLVLATGNFMGGATKNYSSAYAFDMRMLTRLVDTKDVDNRHTLLHHLIEEMKRIDPRRARFALTDFHHCIESSRVNADEIRKTVQLTENNIKKLENCLKVYKIQGERDLFDEKMRPFHEKAVKEFSTVSSMCGKMKNDWESLVKYYAFNDKKYPMEEFFADIRTFSEQYSNAWKELDAEAEAKRKEAEFETQKRKQLQQSQQERKPLQERQAINRVPRTPAAMIRVSTAADKAGVLDELERATGNADFLQTLMSATNSRTPRSGLPARTRGGGRLGGGLDRQRSRHQNALGQLQDLTGCASEPVLSGQFARSRNVPQNDLQRQNMELPSSVKPTTALDRAKAFGVGLPIGQNELKVRVRRKGQPAVPVTNINGTSQISPTHKENDPTGSSSTSSGPASSNTATSSSSGTVVPSTDDLLARLNDF,not soluble
13,GMDTPANKPCIICVAITGSVPTKADNPAVPITVSEQVESTQEAFEAGAAIAHCHVRNDDGTPSSDPDRFARLTEGLHTHCPGMIVQFSTGGRSGAGQARGGMLPLKPDMASLSVGSNNFPSRVYENPPDLVDWLAAQMRSYRVTPEIEAFDLSHILRAIDMHGRGLLYGKLYVQFVMGVKNAMPADREVFDFYVRMMRTRAPQAEWCAAGIGANQLTVNEWAIAAGGHTRTGLEDNIRLDRQTLAPSNAALVRRSVELCDKYQRPVASWQQAREILGLPAAARN,soluble
14,MTGLYIHIPFCATRCSYCDFYSQTNSALRSEYIQALIAEMSIRRAEVTDTIGTLYFGGGTPSLLSPQEIGRIIEQVYRLFSFSSDAEITLEANPDDLNTSYVQELRTLPINRISMGAQSFHDEDLHFLNRRHNARQVLEAVDTCRNAGLTNLSIDLIYGLPGQTPARWQENISAVLALSPPHLSAYHLIYEEGTPLTRLLHAGKVREVDEEVSLELFRMLREQLTGAGYEHYEISNFARSGYHSCHNSSYWQDTPYLGLGPSAHSFDGRRTRRSNPSDIRRYIVSMAAGKPLFTEEILTDNDRYNEVVMTRLRTACGLSPDQIGHLFGKESAERCIRTAAPFIRDGLLHEEADGRIRLTEKGIFLSDRIISEFFIV,not soluble
